Results taken from patent US5126134A, “Pharmaceutically active combination” (Ciba-Geigy Corporation, priority 1988, dated 1992).

How the values were obtained:
[1] = test system: 125I-fibrinogen labelled thrombi in the jugular vein; test: Rabbit jugular vein thrombosis model: enhancement of t-PA induced lysis; assay type: in vivo, New Zealand white rabbits; details: 0.5 mg t-PA infused i.v. over 3 hours, mean of n animals
Experimental: The experiments are performed with New Zealand white rabbits (weighing 2.3-3.5 kg) anaesthesized by intravenous (marginal ear vein) injection of 30 mg/kg sodium pentobarbital. Through a paramedical incision of the neck, the jugular veins and the right carotid artery are exposed. The right carotid artery is cannulated with a 1.5 mm diameter polyethylene cannula for blood sampling. The two jugular veins are isolated, cleared over a distance of 2 cm, small side branches are ligated. Each jugular segment is emptied of blood and blood flow is temporarily occluded both proximally and distally by two angiostaths, 1.5 cm apart. A 10 cm length 3.0 TiCron braided polyester suture, presoaked in a collagen solution, is introduced lengthwise in the lumen of the isolated jugular vein for a distance of 4 cm to avoid the embolization of the thrombus to be produced. 150 μl of citrated rabbit blood containing 5 μl of ^125 I-fibrinogen (approx. 500 000 cpm) is then aspirated in a 1 ml tubercoline syringe containing 50 μl (5 I.U.) of thrombin and 10 μl of CaCl2 (0.25M). […] At the end of the infusion, the thrombi remaining in the vessel are removed and their size is determined by measuring the amount of residual ^125 I-labeled fibrinogen remaining in the thrombi and comparing the results with those of the saline controls.

[2] = test system: preformed non-radioactive thrombi in the jugular vein; test: Rabbit jugular vein thrombosis model: inhibition of thrombus accretion during thrombolysis with t-PA; assay type: in vivo, New Zealand white rabbits; details: FIG. 1; three hours infusion of t-PA alone or along with heparin (0.75 mg/kg)
Experimental: The experiments are performed with New Zealand white rabbits (weighing 2.3-3.5 kg) anaesthesized by intravenous (marginal ear vein) injection of 30 mg/kg sodium pentobarbital. Through a paramedical incision of the neck, the jugular veins and the right carotid artery are exposed. The right carotid artery is cannulated with a 1.5 mm diameter polyethylene cannula for blood sampling. The two jugular veins are isolated, cleared over a distance of 2 cm, small side branches are ligated. Each jugular segment is emptied of blood and blood flow is temporarily occluded both proximally and distally by two angiostaths, 1.5 cm apart. A 10 cm length 3.0 TiCron braided polyester suture, presoaked in a collagen solution, is introduced lengthwise in the lumen of the isolated jugular vein for a distance of 4 cm to avoid the embolization of the thrombus to be produced. […] The effects of standard heparin and recombinant desulfato hirudin in preventing thrombus extension during thrombolysis with t-PA are assessed as their ability to inhibit the accretion of ^125 I-fibrinogen onto autologous non-radioactive thrombi preformed in the jugular vein of rabbits. […] The ratio of the radioactivity of the thrombus to the circulating fibrinogen radioactivity is used to quantify thrombus size, which is then expressed as μg or ^125 I-fibrinogen accreted onto the thrombus.

B1: t-PA: tissue-type plasminogen activator derived from melanoma cell cultures (BioResponse); infused with saline (protein, UniProt P00750 36-562, looked up)
Tissue-type plasminogen …: SYQVICRDEKTQMIYQQHQSWLRPVLRSNRVEYCWCNSGRAQCHSVPVKSCSEPRCFNGGTCQQALYFSDFVCQCPEGFAGKCCEIDTRATCYEDQGISYRGTWSTAESGAECTNWNSSALAQKPYSGRRPDAIRLGLGNHNYCRNPDRDSKPWCYVFKAGKYSSEFCSTPACSEGNSDCYFGNGSAYRGTHSLTESGASCLPWNSMILIGKVYTAQNPSAQALGLGKHNYCRNPDGDAKPWCHVLKNRRLTWEYCDVPSCSTCGLRQYSQPQFRIKGGLFADIASHPWQAAIFAKHRRSPGERFLCGGILISSCWILSAAHCFQERFPPHHLTVILGRTYRVVPGEEEQKFEVEKYIVHKEFDDDTYDNDIALLQLKSDSSRCAQESSVVRTVCLPPADLQLPDWTECELSGYGKHEALSPFYSERLKEAHVRLYPSSRCTSQHLLNRTVTDNMLCAGDTRSGGPQANLHDACQGDSGGPLVCLNDGRMTLVGIISWGLGCGQKDVPGVYTKVTNYLDWIRDNMRP
modifications: melanoma cell derived
notes: infused with saline
- % lysis ([1]; First set of experiments, hirudin 1 mg/kg): 44%
- % lysis ([1]; Second set of experiments, heparin 0.75 mg/kg): 37%
- 125I-fibrinogen accreted onto the thrombus [2]: 52 µg
